Ends that are not written are not given here. * marks the point of attachment. FITC = O=C1OC2(c3ccc(O)cc3Oc3cc(O)ccc32)c2ccc(NC(=S)*)cc21
Molecular target: ALFA‐tag binder 4A

B1: N‐terminally FITC‐labeled ALFA‐tag (peptide)
peptide: {FITC}-SRLEEELRRRLTE
B1 was tested, and the Kd was 222 µM.

From PMC12432402 (2025)
